Laboratory results from doi:10.1101/2025.04.07.647595, “Real-time tracking of mRNP complex assembly reveals various mechanisms that synergistically enhance translation repression”.

Target: T1, Sxl-dRBD5 (UniProt P19339 122-305)
T1 sequence: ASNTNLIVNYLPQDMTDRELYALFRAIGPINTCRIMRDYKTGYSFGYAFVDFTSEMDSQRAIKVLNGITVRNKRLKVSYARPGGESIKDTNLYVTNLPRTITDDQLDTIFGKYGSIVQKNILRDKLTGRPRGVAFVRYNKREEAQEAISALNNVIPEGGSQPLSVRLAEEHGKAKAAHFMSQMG
Experiment: NMR; BMRB 52948; C-terminal helix forms on RNA binding; FP: 10 mM Tris/HCl pH 7.5, 20 mM KCl, 25 mM NaCl, 0.005% NP-40; ITC: 50 mM Tris/HCl pH 7.5, 50 or 150 mM KCl, 298 K; smFRET: 50 mM salt at 21 C, or 150 mM at 29 C for Hrp48 assays
Conditions: protein: recombinant; tags: His6-Trx-TEV removed

UUUUUUUUUU (ssRNA) [U10-mer RNA]: binds.
